Target: soluble recombinant NadA_(Δ351-405) (rNadA), Neisseria meningitidis adhesin A lacking the membrane anchor region (Neisseria meningitidis) (UniProt Q8KH85)
Test: SEC-MALS; rNadA 1,7 mg/ml in 10 mM NaH2PO4 150 mM NaCl pH 7.2, heated at 37°C for 30 min, 1, 2 and 4 hrs; TSK Super SW3000, eluted in 0.1 M NaH2PO4, 0,1 M NaHSO4 pH 7.0; MALLS detector Dawn TREOS

soluble recombinant NadA_(Δ351-405) (rNadA), Neisseria meningitidis adhesin A lacking the membrane anchor region (from UniProt Q8KH85 1-350) (domain or fragment)
percent of the preparation present as the native trimer: 95%
stoichiometry N: 3
